Measurements as given in PMC9352680, “A comprehensive thermodynamic model for RNA binding by the Saccharomyces cerevisiae Pumilio protein PUF4”.

T1: PUF4 RNA-binding domain (Saccharomyces cerevisiae, UniProt P25339 537-888)
T1 sequence: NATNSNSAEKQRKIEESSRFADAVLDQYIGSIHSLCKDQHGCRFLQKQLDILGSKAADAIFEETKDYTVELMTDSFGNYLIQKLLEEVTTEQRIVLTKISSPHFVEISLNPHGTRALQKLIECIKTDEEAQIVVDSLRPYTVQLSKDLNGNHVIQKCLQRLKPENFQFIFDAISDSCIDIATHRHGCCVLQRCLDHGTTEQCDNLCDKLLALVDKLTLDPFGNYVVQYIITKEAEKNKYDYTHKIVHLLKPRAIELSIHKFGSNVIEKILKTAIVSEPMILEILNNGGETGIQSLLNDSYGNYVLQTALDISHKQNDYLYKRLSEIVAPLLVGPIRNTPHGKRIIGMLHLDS

B1: Id_ii_S3_P4E.4_K4.3_C4.2_[T-1C]_H4.3_A4.1_F4.1_T4.2_[G10C]_[T11C] (ssRNA)
RNA: ACAAACCCACACUAUUACCACAAAC
B2: Id_ii_S3_P4E.4_K4.3_C4.2_[T-1C]_H4.3_A4.1_F4.1_T4.2_[G10A]_[T11G] (ssRNA)
RNA: ACAAACCCACACUAUUAAGACAAAC
B3: Id_ii_S3_P4E.4_K4.3_C4.2_[T-1C]_H4.3_A4.1_F4.1_T4.2_[G10A]_[T11C] (ssRNA)
RNA: ACAAACCCACACUAUUAACACAAAC
B4: Id_ii_S3_P4E.4_K4.3_C4.2_[T-1C]_H4.3_A4.1_F4.1_T4.2_[G10A]_[T11A] (ssRNA)
RNA: ACAAACCCACACUAUUAAAACAAAC
B5: Ic_S1_P5E.1_K5.1_C5.1_H5.1_A5.1_[A7C]_F5.1_[A10T]_T5.1 (ssRNA)
RNA: UCUCUUUGUAUUCUUUUCUCUU
B6: Id_ii_S3_P4E.4_K4.3_C4.2_[T-1C]_H4.3_A4.1_F4.1_T4.2_[G10A] (ssRNA)
RNA: ACAAACCCACACUAUUAAUACAAAC
B7: Id_ii_S3_P4E.4_K4.3_C4.2_[T-1A]_H4.3_A4.1_F4.1_T4.2_[G10C]_[T11G] (ssRNA)
RNA: ACAAACCAACACUAUUACGACAAAC
B8: Id_ii_S3_P4E.4_K4.3_C4.2_[T-1A]_H4.3_A4.1_F4.1_T4.2_[G10C] (ssRNA)
RNA: ACAAACCAACACUAUUACUACAAAC
B9: Id_ii_S3_P4E.4_K4.3_C4.2_[T-1A]_H4.3_A4.1_F4.1_T4.2_[G10T]_[T11C] (ssRNA)
RNA: ACAAACCAACACUAUUAUCACAAAC
B10: Id_ii_S3_P4E.4_K4.3_C4.2_[T-1A]_H4.3_A4.1_F4.1_T4.2_[G10A]_[T11G] (ssRNA)
RNA: ACAAACCAACACUAUUAAGACAAAC
B11: Id_ii_S3_P4E.4_K4.3_C4.2_[T-1A]_H4.3_A4.1_F4.1_T4.2_[G10A]_[T11C] (ssRNA)
RNA: ACAAACCAACACUAUUAACACAAAC
B12: Id_ii_S3_P4E.4_K4.3_C4.2_[T-1A]_H4.3_A4.1_F4.1_T4.2_[G10A] (ssRNA)
RNA: ACAAACCAACACUAUUAAUACAAAC
B13: Id_ii_S3_P4E.4_K4.3_C4.2_[T-1A]_H4.3_A4.1_F4.1_T4.2_[T11C] (ssRNA)
RNA: ACAAACCAACACUAUUAGCACAAAC
B14: Id_ii_S3_P4E.4_K4.3_C4.2_[T-1A]_H4.3_A4.1_F4.1_T4.2 (ssRNA)
RNA: ACAAACCAACACUAUUAGUACAAAC
B15: Id_ii_S3_P4E.4_K4.3_C4.2_H4.3_A4.1_F4.1_T4.2_[G10A]_[T11C] (ssRNA)
RNA: ACAAACCUACACUAUUAACACAAAC
B16: Ib_S1_P5E.1_K5.1_C5.1_H5.1_[T1G]_[G2T]_A5.1_F5.1_T5.1 (ssRNA)
RNA: UCUCUUGUUAUUAUUAUCUCUU
B17: Id_ii_S3_P5E.3_K5.2_C5.2_[C-2G]_[T-1G]_H5.2_A5.1_F5.1_T5.2_[T11G]_[A12G] (ssRNA)
RNA: ACAAACGGUAUAUUAUUAGGACAAAC
B18: Id_ii_S3_P5E.3_K5.2_C5.2_[C-2G]_[T-1C]_H5.2_A5.1_F5.1_T5.2_[T11A]_[A12C] (ssRNA)
RNA: ACAAACGCUAUAUUAUUAACACAAAC
B19: Id_ii_S3_P5E.3_K5.2_C5.2_[C-2G]_[T-1C]_H5.2_A5.1_F5.1_T5.2_[T11A]_[A12T] (ssRNA)
RNA: ACAAACGCUAUAUUAUUAAUACAAAC
B20: Id_ii_S3_P5E.3_K5.2_C5.2_[C-2G]_[T-1A]_H5.2_A5.1_F5.1_T5.2_[T11G]_[A12G] (ssRNA)
RNA: ACAAACGAUAUAUUAUUAGGACAAAC
B21: Id_ii_S3_P5E.3_K5.2_C5.2_[C-2G]_[T-1A]_H5.2_A5.1_F5.1_T5.2_[T11G]_[A12C] (ssRNA)
RNA: ACAAACGAUAUAUUAUUAGCACAAAC
B22: Id_ii_S3_P5E.3_K5.2_C5.2_[C-2G]_[T-1A]_H5.2_A5.1_F5.1_T5.2_[T11C]_[A12C] (ssRNA)
RNA: ACAAACGAUAUAUUAUUACCACAAAC
B23: Id_ii_S3_P5E.3_K5.2_C5.2_[C-2G]_[T-1A]_H5.2_A5.1_F5.1_T5.2_[T11C] (ssRNA)
RNA: ACAAACGAUAUAUUAUUACAACAAAC
B24: Id_ii_S3_P5E.3_K5.2_C5.2_[C-2G]_[T-1A]_H5.2_A5.1_F5.1_T5.2_[T11A]_[A12C] (ssRNA)
RNA: ACAAACGAUAUAUUAUUAACACAAAC
B25: Id_ii_S3_P5E.3_K5.2_C5.2_[C-2G]_[T-1A]_H5.2_A5.1_F5.1_T5.2_[T11A]_[A12T] (ssRNA)
RNA: ACAAACGAUAUAUUAUUAAUACAAAC
B26: Id_ii_S3_P5E.3_K5.2_C5.2_[C-2G]_[T-1A]_H5.2_A5.1_F5.1_T5.2_[T11A] (ssRNA)
RNA: ACAAACGAUAUAUUAUUAAAACAAAC
B27: Ib_S1_P5E.1_K5.1_C5.1_H5.1_[T1C]_[G2A]_A5.1_F5.1_T5.1 (ssRNA)
RNA: UCUCUUCAUAUUAUUAUCUCUU
B28: Id_ii_S3_P5E.3_K5.2_C5.2_[C-2G]_H5.2_A5.1_F5.1_T5.2_[T11C]_[A12T] (ssRNA)
RNA: ACAAACGUUAUAUUAUUACUACAAAC
B29: Id_ii_S3_P5E.3_K5.2_C5.2_[C-2T]_[T-1C]_H5.2_A5.1_F5.1_T5.2_[T11C]_[A12G] (ssRNA)
RNA: ACAAACUCUAUAUUAUUACGACAAAC
B30: Id_ii_S3_P5E.3_K5.2_C5.2_[C-2T]_[T-1C]_H5.2_A5.1_F5.1_T5.2_[T11A]_[A12G] (ssRNA)
RNA: ACAAACUCUAUAUUAUUAAGACAAAC
B31: Id_ii_S3_P5E.3_K5.2_C5.2_[C-2T]_[T-1A]_H5.2_A5.1_F5.1_T5.2_[T11C] (ssRNA)
RNA: ACAAACUAUAUAUUAUUACAACAAAC

Molecular target: T1, PUF4 RNA-binding domain
Assay: Mg; RNA-MaP; 20 mM Na-HEPES pH 7.4, 30 mM KOAc, 0.75 mM MgCl2, 0.1% Tween-20, 5% glycerol, 0.1 mg/mL BSA, 2 mM DTT; 25 C; 0.0125-409.6 nM protein
Settings: tags: N-His6-TEV cleaved; C-SNAP kept, Cy3B-labelled; label: tethered on chip by stalled RNA polymerase

Binder	Kd [nM]
B1	> 2300
B2	> 2300
B3	> 2300
B4	> 2300
B5	28.6
B6	> 2300
B7	> 2300
B8	> 2300
B9	> 2300
B10	> 2300
B11	> 2300
B12	> 2300
B13	> 2300
B14	> 2300
B15	> 2300
B16	56.7

Binder	Kd [nM]
B17	28.9
B18	812
B19	480
B20	164
B21	164
B22	519
B23	173
B24	313
B25	285
B26	704
B27	> 2300
B28	580
B29	230
B30	684
B31	13.5
